From patent US12448442B2, “Treatment of T cell lymphoma” (INNATE PHARMA, priority 2019, dated 2025)

How the values were obtained:
Hut78 cells = test: KIR3DL2 surface expression by flow cytometry on Hut78 cells; assay type: cell-based; details: Hut78 / TCL cells
Procedure: (§1) RAJI-KIR3DL2 (48 hour incubation) (FIG. 2, left hand panel) or Hut 78 ([…]; 24 hour incubation (FIG. 2, right hand panel) were incubated with ascending doses of gemcitabine and oxaliplatin. Median intensity of fluorescence of KIR3DL2 on tumor cell line surface was analyzed by flow cytometry.
(§2) Briefly, Hut78 cells (Sezary Syndrome cell line) or RAJI-KIR3DL2 cells (RAJI B-NHL cell line transfected with human KIR3DL2 were incubated with ascending doses of gemcitabine and oxaliplatin. Median intensity of fluorescence of KIR3DL2 on tumor cell line surface was analyzed by flow cytometry.

RAJI-KIR3DL2 cells = test: KIR3DL2 surface expression by flow cytometry on RAJI-KIR3DL2 cells; assay type: cell-based; details: RAJI-KIR3DL2, same experimental conditions
Procedure: as §1, §2

[1] = test system: KIR3DL2-expressing Sézary Syndrome cell line (Hut 78); test: In vitro cellular cytotoxicity (ADCC) assay with allogeneic NK cells and Hut 78 cells, with increasing concentrations of anti-KIR3DL2 antibody; assay type: cell-based; details: chemotherapeutic agent added to lacutamab, allogeneic NK cells, FIG. 1
Procedure: Consequently, we sought to evaluate whether chemotherapeutic agents affect the NK cell-mediated ADCC activity of humanized 2B12 antibody lacutamab having human IgG1 isotype and the VH and VL amino acid sequences shown in SEQ ID NOS: 49 and 44, respectively. Chemotherapeutic agents were added, alone or in combination, to an in vitro cellular cytotoxicity (ADCC) assay with allogeneic NK cells and KIR3DL2-expressing Sézary Syndrome cell line (Hut 78), in presence of increasing concentrations of the anti-KIR3DL2 antibody.

RAJI-KIR3DL2 = assay type: in vivo; details: twice a week; antibody 0.3 μg per injection, gemcitabine 50 mg/kg, oxaliplatin 5 mg/kg; FIG. 3
Excerpt: A xenograft model in the CB17-SCID mouse whereby the immunocompromised mouse strain that retains fully functional NK cells and macrophages. […] The B-NHL cell line RAJI was transfected to stably express KIR3DL2 (RAJI-KIR3DL2), and the transfectants were inoculated (5×10^6 cells) to the SCID mice by IV thereby providing a disseminated tumor model. Initially, individual doses of gemcitabine and oxaliplatin were established in this xenograft model.

KIR3DL2 [2] = molecular target: T1, KIR3DL2 (Homo sapiens, UniProt P43630); set-up: host or cells: tumor cells (not further named); details: into cells / tumor cells; cited from earlier work
refractory SS patients = test: Clinical trials of single agent IPH4102 in refractory Sézary Syndrome patients; assay type: in vivo, human; details: repeated administrations of single agent
Excerpt: Antibodies that specifically bind to KIR3DL2 are well known in the art. Innate Pharma for example have described numerous anti-KIR3DL2 antibodies directed to a range of different epitopes on KIR3DL2, e.g., antibodies 15C11, 19H12, 22B2, 18B10, 12B11, 13H1, 10F6, 2B12, 18C6, 9E10, 10G5, 13H1, 5H1, 1E2, 1C3 and 20E9 described in PCT publication nos. WO2014/044681 and WO2014/044686. […] These encouraging results, moreover with few side effects and the ability to deplete malignant KIR3DL2-expressing cells without causing the depletion of healthy KIR3DL2-expressing NK and T cells provides an important advance in treating TCLs.

human KIR3DL1 = human KIR3DL1 (Homo sapiens, UniProt P43629); details: cited from earlier work
KIR3DL2 [3] = molecular target: T1, KIR3DL2; details: cited from earlier work

T1 sequence (P43630 22-455): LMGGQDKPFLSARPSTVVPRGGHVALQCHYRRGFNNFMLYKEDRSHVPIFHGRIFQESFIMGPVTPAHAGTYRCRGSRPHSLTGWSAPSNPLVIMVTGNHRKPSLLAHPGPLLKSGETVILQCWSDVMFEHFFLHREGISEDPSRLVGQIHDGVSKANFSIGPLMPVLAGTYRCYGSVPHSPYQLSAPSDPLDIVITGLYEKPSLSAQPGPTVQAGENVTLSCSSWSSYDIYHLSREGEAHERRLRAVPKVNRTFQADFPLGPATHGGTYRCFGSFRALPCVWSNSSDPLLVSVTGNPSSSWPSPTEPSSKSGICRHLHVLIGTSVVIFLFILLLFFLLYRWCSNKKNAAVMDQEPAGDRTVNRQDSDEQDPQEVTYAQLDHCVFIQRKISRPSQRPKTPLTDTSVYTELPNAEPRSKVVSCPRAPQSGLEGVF
Sequence of human KIR3DL1 (P43629 22-444): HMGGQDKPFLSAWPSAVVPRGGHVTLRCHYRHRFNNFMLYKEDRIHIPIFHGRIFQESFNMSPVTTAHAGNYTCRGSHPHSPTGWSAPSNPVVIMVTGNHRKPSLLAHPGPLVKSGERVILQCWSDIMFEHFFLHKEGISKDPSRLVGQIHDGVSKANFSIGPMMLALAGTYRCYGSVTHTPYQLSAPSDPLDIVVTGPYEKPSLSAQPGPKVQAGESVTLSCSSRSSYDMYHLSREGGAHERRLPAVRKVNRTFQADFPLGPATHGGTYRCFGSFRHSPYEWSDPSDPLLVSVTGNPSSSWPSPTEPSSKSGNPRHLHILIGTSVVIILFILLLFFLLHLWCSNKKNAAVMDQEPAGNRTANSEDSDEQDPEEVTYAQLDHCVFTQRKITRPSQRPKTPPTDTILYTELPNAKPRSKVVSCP

**Q.** With `O=P1(N(CCCl)CCCl)NCCCO1` (stereo not shown) [cyclophosphamide] as the molecule, how does the “effect on KIR3DL2 expression” value (Hut78 cells) read?
**A.** did not increase KIR3DL2 expression

**Q.** What about the “effect on KIR3DL2 expression” value (RAJI-KIR3DL2 cells) of the same molecule?
**A.** did not increase KIR3DL2 expression

**Q.** Which “effect on anti-KIR3DL2 antibody-induced ADCC / anti-tumor activity against HUT78” value [1] does the source give for `Nc1ccn([C@@H]2O[C@H](CO)[C@@H](O)C2(F)F)c(=O)n1` [gemcitabine] here?
**A.** enhanced

**Q.** Which “effect on anti-KIR3DL2 antibody-induced ADCC / anti-tumor activity against HUT78” value [1] does the source give for `O=C1[O][Pt]2([NH][C@@H]3CCCC[C@H]3[NH]2)[O]C1=O` [oxaliplatin] here?
**A.** enhanced

**Q.** What about the “anti-tumor activity in vivo” value (RAJI-KIR3DL2) of the same molecule?
**A.** very limited, if any, anti-tumor effect

B1: 19H12: anti-KIR3DL2 antibody, VH SEQ ID NO: 5, VL SEQ ID NO: 6 (antibody, V domains shown)
VH: QIQLVQSGPELKKPGETVKISCKASGYTFTNFGMNWVKQAPGKGLKWMGWINTYTGEPTYADDFKGRFAFSLETSASTAYLQINNLKNEDMATYFCARNGNFGYYFDYWGQGTTLTVSS
VL: DVLMTQTPLSLPVSLGDQASFSCRSSQNIVHSNGNTYLEWYLQKPGQSPSLLIYKVSNRFSGVPDRFSGSGSGTDFTLKITRVEAEDLGVYYCFQGSHVPFTFGSGTKLEIK
modifications: mus musculus
**Q.** For B1, which “internalization via KIR3DL2” value (KIR3DL2 [2]) is on record?
**A.** capable of being internalized

B2: IPH4102: humanized 2B12 anti-KIR3DL2 antibody, human IgG1, VH SEQ ID NO: 49 and VL SEQ ID NO: 44 (antibody, V domains shown)
VH: QIQLVQSGSELKKPGASVKVSCKASGYTFTTAGMQWVRQAPGQGLEWIGWINSHSGVPKYAEDFKGRFVFSLDTSVSTAYLQISSLKAEDTAVYFCARGGDEGVMDYWGQGTTVTVSS
VL: DIQMTQSPSFLSASVGDRVTITCKASQDVSTAVAWYQQKPGQPPKLLIYWTSTRHTGVPDRFSGSGSGTDYTLTISSLQAEDVAVYYCQQHYSTPWTFGGGTKVEIK
**Q.** Which “median duration of response (DoR)” value (refractory SS patients) does the source give for B2 here?
**A.** 13.8 months

**Q.** What about the “median progression-free survival (PFS)” value (refractory SS patients) of the same molecule?
**A.** 11.7 months

**Q.** And the “overall response rate (ORR)” value (refractory SS patients)?
**A.** 42.9%

B3: 2B12: anti-KIR3DL2 antibody, VH SEQ ID NO: 32, VL SEQ ID NO: 33 (antibody, listed as Mus musculus, V domains shown)
VH: QIQLVQSGPELKKPGETVRISCKASGYTFTTAGMQWVQKTPGKGLKWIGWINSHSGVPKYAEDFKGRFAFSLETSASTAYLQISTLKNEDTATYFCARGGDEGVMDYWGQGTSVTVS
VL: DIVMTQSHKFMSTSLGDRVSFTCKASQDVSTAVAWYQQKPGQSPKLLIYWTSTRHTGVPDRFTGSGSGTDYTLTISSVQAEDLALYYCQQHYSTPWTFGGGTKLEIK
**Q.** Which “internalization via KIR3DL2” value (KIR3DL2 [2]) does the source give for B3 here?
**A.** do not induce any KIR3DL2 internalization

B4: 12B11: anti-KIR3DL2 antibody, VH SEQ ID NO: 16, VL SEQ ID NO: 17 (antibody, listed as Mus musculus, V domains shown)
VH: QLVQSGPELKNPGETVKISCKASGYTFTNYGMNWVKQAPGKGLKWMGWINTYTGEPTYADDFKGRFAFSLETSASTAYLQINNLKNEDTATYFCAHGPWLAYWGQGTLVTVS
VL: DIKMTQSPSSMYASLGERVTITCKASQDINVYLSWFQQKPGKSPKTLIYRAIRLVDGVPSRFSGSGSGQDYSLTISSLDYEDMGIYYCLQYDELPYTFGGGTKLEIE
**Q.** With B4 as the molecule, how does the “internalization via KIR3DL2” value (KIR3DL2 [2]) read?
**A.** capable of being internalized

B5: AZ158: antibody binding human KIR3DL2 and KIR3DL1, VH SEQ ID NO: 3, VL SEQ ID NO: 4 (antibody, V domains shown)
VH: QVQLKESGPGLVAPSQSLSITCTVSGFSLTSFGVHWVRQPPGKGLEWLGVIWAGGSTNYNSALMSRLSISKDNSKSQVFLKMNSLQNDDTAMYYCARGNSNHYVSSFYYFDYWGQGTTLTVSS
VL: DIQMTQSPSSLSASLGGKVTITCKASQDINKYIAWYQHKPGKGPRLLIHYTSTLQPGIPSRFSGSGSGRDYSFSISNLEPEDITTYYCLQYDNLWTFGGGTKLEIK
modifications: mus musculus
**Q.** For B5, which “binding to KIR3DL1” value (human KIR3DL1) is on record?
**A.** binds

**Q.** And the “binding to KIR3DL2” value (KIR3DL2 [3])?
**A.** binds
